# Read-outs that look alike come from different tables or passages of the source.
# T1: recombinant human IL-8, (ser-IL-8)72 (human, UniProt P10145 28-99)
# T1 construct: mature; radio-iodinated when used as tracer; also called human wild type IL-8; wt IL-8
# T1 sequence (looked up): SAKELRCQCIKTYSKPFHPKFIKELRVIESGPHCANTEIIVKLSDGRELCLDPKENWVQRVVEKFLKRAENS
# T2: rhesus IL-8 (rhesus, UniProt P67813 23-101, limits assumed)
# T2 sequence (looked up): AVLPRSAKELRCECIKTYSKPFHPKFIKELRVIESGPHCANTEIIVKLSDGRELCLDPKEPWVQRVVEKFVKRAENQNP
# Legend:
# [1] = molecular target: T1, recombinant human IL-8, (ser-IL-8)72; test: inhibition of 125I-IL-8 binding to human neutrophils
# [2] = molecular target: T1, recombinant human IL-8, (ser-IL-8)72; test: as above; remark: listed apart in the source
# rhesus IL-8 = molecular target: T2, rhesus IL-8; test: cell-based or functional assay
# [3] = molecular target: T1, recombinant human IL-8, (ser-IL-8)72; test: cell-based or functional assay
Binder,IC50 [2],fold decrease in IL-8 binding (against F(ab)-1) [1],further results
"humanized 6G425 F(ab)-1 (Fab, V domains shown, Fab with human kappa subgroup I light chain and human IgG1 subgroup III heavy chain (vector pEMX1); also called version 1; VI) VH: EVQLVESGGGLVQPGGSLRLSCAASGYSFSSHYMHWVRQAPGKGLEWVGYIDPSNGETTYNQKFKGRFTISRDNSKNTLYLQMNSLRAEDTAVYYCARGDYRYNGDWFFDVWGQGTLVTVSS VL: DIQMTQSPSSLSASVGDRVTITCRSSQSLVHGIGNTYLHWYQQKPGKAPKLLIYKVSNRFSGVPSRFSGSGSGTDFTLTISSLQPEDFATYYCSQSTHVPLTFGQGTKVEIKR",63 nM,,IC50 [1]: 40 nM; fold reduction in binding affinity (against the chimeric F(ab) of Table 4) [1]: 5.5 fold
"humanized 6G425 F(ab)-3 (Fab, V domains shown, Template F(ab)-1; Fab constant parts as F(ab)-1; also called version 3) VH: EVQLVESGGGLVQPGGSLRLSCAASGYSFSSHYMHWVRQAPGKGLEWVGYIDPSNGETTYNQKFKGRFTISVDNSKNTLYLQMNSLRAEDTAVYYCARGDYRYNGDWFFDVWGQGTLVTVSS VL: DIQMTQSPSSLSASVGDRVTITCRSSQSLVHGIGNTYLHWYQQKPGKAPKLLIYKVSNRFSGVPSRFSGSGSGTDFTLTISSLQPEDFATYYCSQSTHVPLTFGQGTKVEIKR",79.8 nM,< 2 fold,
"humanized 6G425 F(ab)-7 (Fab, V domains shown, Template F(ab)-6; Fab constant parts as F(ab)-1; also called version 16) VH: EVQLVESGGGLVQPGGSLRLSCAASGYSFSSHYMHWVRQAPGKGLEWVGYIDPSNGETTYNQKFKGRFTLSRDNSKNTAYVQMNSLRAEDTAVYYCARGDYRYNGDWFFDVWGQGTLVTVSS VL: DIQMTQSPSSLSASVGDRVTITCRSSQSLVHGIGNTYLHWYQQKPGKAPKLLIYKVSNRFSGVPSRFSGSGSGTDFTLTISSLQPEDFATYYCSQSTHVPLTFGQGTKVEIKR",38.4 nM,,
"humanized 6G425 F(ab)-8 (6G4.2.5V19) (Fab, V domains shown) VH: EVQLVESGGGLVQPGGSLRLSCAASGYSFSSHYMHWVKQAPGKGLEWVGYIDPSNGETTYNQKFKGRFTLSRDNSKNTAYLQMNSLRAEDTAVYYCARGDYRYNGDWFFDVWGQGTLVTVSS VL: DIQMTQSPSSLSASVGDRVTITCRSSQSLVHGIGNTYLHWYQQKPGKAPKLLIYKVSNRFSGVPSRFSGSGSGTDFTLTISSLQPEDFATYYCSQSTHVPLTFGQGTKVEIKR",,,"IC50, neutrophil chemotaxis (rhesus IL-8): 10 nM; IC50, neutrophil chemotaxis [3]: 0.12 nM"
"humanized 6G425 F(ab)-2 (Fab, V domains shown, Template F(ab)-1; Fab constant parts as F(ab)-1; also called version 2) VH: EVQLVESGGGLVQPGGSLRLSCAASGYSFSSHYMHWVRQAPGKGLEWVGYIDPSNGETTYNQKFKGRATISRDNSKNTLYLQMNSLRAEDTAVYYCARGDYRYNGDWFFDVWGQGTLVTVSS VL: DIQMTQSPSSLSASVGDRVTITCRSSQSLVHGIGNTYLHWYQQKPGKAPKLLIYKVSNRFSGVPSRFSGSGSGTDFTLTISSLQPEDFATYYCSQSTHVPLTFGQGTKVEIKR",106 nM,< 2 fold,
